Test [1] concerns the target TatBC–strepII–His6 complex (E. coli) (UniProt P69425). Nature of the test: SPR; Biacore T200; TatBC complex captured (about 300 RU) on polyclonal TatB antibodies coupled to a CM5 chip; precursor as analyte at 1.9–30 μM, injected for 3 min; 25 °C; 20 mM MOPS-NaOH, 200 mM NaCl, 1 mM EDTA, 0.01% GDN, pH 8; 1:1 binding model.
Test [2] concerns the target TatBC–His6 complex (GDN-solubilized, purified) (E. coli) (UniProt P69425). Nature of the test: ITC; TatBC–His6 (45 μM) in the cell; titrant 150 μM HiPIP or 85 μM TorA signal peptide; 25 °C; 20 mM MOPS-NaOH, 200 mM NaCl, 1 mM EDTA, 0.01% GDN, pH 8; one-site model; molar ratio counted per TatC–His6.
Test [3] concerns the target T1, TatBC–His6 complex (GDN-solubilized, purified) (E. coli, UniProt P69425 1-171; P69423 1-258).
T1 sequence (looked up) 1: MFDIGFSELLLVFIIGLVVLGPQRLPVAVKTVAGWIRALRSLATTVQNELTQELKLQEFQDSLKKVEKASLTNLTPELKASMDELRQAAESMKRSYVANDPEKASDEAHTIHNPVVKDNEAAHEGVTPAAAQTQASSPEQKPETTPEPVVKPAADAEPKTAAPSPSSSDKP
T1 sequence (looked up) 2: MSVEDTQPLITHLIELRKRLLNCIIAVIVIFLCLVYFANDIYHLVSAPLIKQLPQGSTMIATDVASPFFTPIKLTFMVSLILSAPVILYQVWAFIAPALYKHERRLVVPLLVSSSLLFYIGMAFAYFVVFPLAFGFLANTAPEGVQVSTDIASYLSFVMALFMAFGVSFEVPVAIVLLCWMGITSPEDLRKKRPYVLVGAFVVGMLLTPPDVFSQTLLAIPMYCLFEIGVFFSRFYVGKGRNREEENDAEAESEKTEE
The description is as above. As to conditions: both partners purified.

The values that follow come from publication PMC5852461 (Biochemistry, 2018).

“E. coli CueO precursor, hexahistidine-tagged (from UniProt P36649 29-516) (natural protein)”: in test [1], the equilibrium dissociation constant (Kd) stood at 4.5 µM, the koff stood at 0.0018 s⁻¹ and the kon worked out at 400 M⁻¹ s⁻¹.

For “high-potential iron–sulfur protein (HiPIP) precursor from Acidithiobacillus ferrooxidans, His6-tagged (natural protein)”, in test [2], the dissociation constant Kd is 6 µM and the stoichiometry N (HiPIP per TatC) was found to be 0.33.

Turning to SRRRFLAQLGGLTVAGMLGPSLLTPRR [TorA signal peptide (residues 10–36)], in test [3], the Kd is about 0.5 µM and the “stoichiometry N” value came to 0.44 peptide per TatC.
